We go through one substance from patent US20260139001A1.

The target in this test is SARS-CoV-2 Spike RBD, B.1.1.529/Omicron (SARS-CoV-2 Omicron B.1.1.529) (UniProt P0DTC2).

“Ribosomally constructed Wuhan-NS (VHH72 V104UAG construct translated with NBDxK-tRNACUA)” showed a normalized tube fluorescence of 0.09.
